Laboratory results as given in patent US20240417476A1 (ATYR PHARMA, published 2024).
Like-named read-outs stand apart in the source and are kept apart here.

B1: Human NRP2b v5 with C-terminal split NanoLuc tag, expressed in Expi293F cells (receptor)
chain: QPDPPCGGRLNSKDAGYITSPGYPQDYPSHQNCEWIVYAPEPNQKIVLNFNPHFEIEKHDCKYDFIEIRDGDSESADLLGKHCGNIAPPTIISSGSMLYIKFTSDYARQGAGFSLRYEIFKTGSEDCSKNFTSPNGTIESPGFPEKYPHNLDCTFTILAKPKMEIILQFLIFDLEHDPLQVGEGDCKYDWLDIWDGIPHVGPLIGKYCGTKTPSELRSSTGILSLTFHTDMAVAKDGFSARYYLVHQEPLENFQCNVPLGMESGRIANEQISASSTYSDGRWTPQQSRLHGDDNGWTPNLDSNKEYLQVDLRFLTMLTAIATQGAISRETQNGYYVKSYKLEVSTNGEDWMVYRHGKNHKVFQANNDATEVVLNKLHAPLLTRFVRIRPQTWHSGIALRLELFGCRVTDAPCSNMLGMLSGLIADSQISASSTQEYLWSPSAARLVSSRSGWFPRIPQAQPGEEWLQVDLGTPKTVKGVIIQGARGGDSITAVEARAFVRKFKVSYSLNGKDWEYIQDPRTQQPKLFEGNMHYDTPDIRRFDPIPAQYVRVYPERWSPAGIGMRLEVLGCDWTDSKPTVETLGPTVKSEETTTPYPTEEEATECGENCSFEDDKDLQLPSGFNCNFDFLEEPCGWMYDHAKWLRTTWASSSSPNDRTFPDDRNFLRLQSDSQREGQYARLISPPVHLPRSPVCMEFQYQATGGRGVALQVVREASQESKLLWVIREDQGGEWKHGRIILPSYDMEYQIVFEGVIGKGRSGEIAIDDIRISTDVPLENCMEPISAFAGGTLLPGTEPTVDTVPMQPIPAYWYYVMAAGGAVLVLVSVALALVLHYHRFRYAAKKTDHSITYKTSHYTNGAPLAVEPTLTIKLEQDRGSHC
notes: cDNA Origene RC210928, isoform 5; not shown: vector-encoded spacer and split NanoLuc fragment
B2: CCR7, full coding sequence, in pBiT1.1-C with C-terminal split NanoLuc tag, expressed in Expi293F cells (receptor)
chain: QDEVTDDYIGDNTTVDYTLFESLCSKKDVRNFKAWFLPIMYSIICFVGLLGNGLVVLTYIYFKRLKTMTDTYLLNLAVADILFLLTLPFWAYSAAKSWVFGVHFCKLIFAIYKMSFFSGMLLLLCISIDRYVAIVQAVSAHRHRARVLLISKLSCVGIWILATVLSIPELLYSDLQRSSSEQAMRCSLITEHVEAFITIQVAQMVIGFLVPLLAMSFCYLVIIRTLLQARNFERNKAIKVIIAVVVVFIVFQLPYNGVVLAQTVANFNITSSTCELSKQLNIAYDVTYSLACVRCCVNPFLYAFIGVKFRNDLFKLFKDLGCLSQEQLRQWSSCRHIRRSSMSVEAETTTTFSP
notes: cDNA Genscript OHu24012; not shown: vector-encoded spacer and large split NanoLuc fragment (pBiT1.1-C)
B3: CCR7 truncated after aa331 (without its C-terminal cytoplasmic sequence) in pBiT1.1-C with split NanoLuc tag, expressed in Expi293 cells (receptor)
chain: QDEVTDDYIGDNTTVDYTLFESLCSKKDVRNFKAWFLPIMYSIICFVGLLGNGLVVLTYIYFKRLKTMTDTYLLNLAVADILFLLTLPFWAYSAAKSWVFGVHFCKLIFAIYKMSFFSGMLLLLCISIDRYVAIVQAVSAHRHRARVLLISKLSCVGIWILATVLSIPELLYSDLQRSSSEQAMRCSLITEHVEAFITIQVAQMVIGFLVPLLAMSFCYLVIIRTLLQARNFERNKAIKVIIAVVVVFIVFQLPYNGVVLAQTVANFNITSSTCELSKQLNIAYDVTYSLACVRCCVNPFLYAFIGV
notes: Membrane protein on cells, cytoplasmic tail removed; not shown: vector-encoded spacer and large split NanoLuc fragment (pBiT1.1-C)
B4: Human NRP2b v4 (906aa) with C-terminal split NanoLuc tag, expressed in Expi293F cells (receptor)
chain: QPDPPCGGRLNSKDAGYITSPGYPQDYPSHQNCEWIVYAPEPNQKIVLNFNPHFEIEKHDCKYDFIEIRDGDSESADLLGKHCGNIAPPTIISSGSMLYIKFTSDYARQGAGFSLRYEIFKTGSEDCSKNFTSPNGTIESPGFPEKYPHNLDCTFTILAKPKMEIILQFLIFDLEHDPLQVGEGDCKYDWLDIWDGIPHVGPLIGKYCGTKTPSELRSSTGILSLTFHTDMAVAKDGFSARYYLVHQEPLENFQCNVPLGMESGRIANEQISASSTYSDGRWTPQQSRLHGDDNGWTPNLDSNKEYLQVDLRFLTMLTAIATQGAISRETQNGYYVKSYKLEVSTNGEDWMVYRHGKNHKVFQANNDATEVVLNKLHAPLLTRFVRIRPQTWHSGIALRLELFGCRVTDAPCSNMLGMLSGLIADSQISASSTQEYLWSPSAARLVSSRSGWFPRIPQAQPGEEWLQVDLGTPKTVKGVIIQGARGGDSITAVEARAFVRKFKVSYSLNGKDWEYIQDPRTQQPKLFEGNMHYDTPDIRRFDPIPAQYVRVYPERWSPAGIGMRLEVLGCDWTDSKPTVETLGPTVKSEETTTPYPTEEEATECGENCSFEDDKDLQLPSGFNCNFDFLEEPCGWMYDHAKWLRTTWASSSSPNDRTFPDDRNFLRLQSDSQREGQYARLISPPVHLPRSPVCMEFQYQATGGRGVALQVVREASQESKLLWVIREDQGGEWKHGRIILPSYDMEYQIVFEGVIGKGRSGEIAIDDIRISTDVPLENCMEPISAFAGENFKGGTLLPGTEPTVDTVPMQPIPAYWYYVMAAGGAVLVLVSVALALVLHYHRFRYAAKKTDHSITYKTSHYTNGAPLAVEPTLTIKLEQDRGSHC
notes: not shown: vector-encoded spacer and split NanoLuc fragment

Key:
[1] = biological target: B2; experiment: NanoBiT split-luciferase complementation of tagged NRP2 and CCR7 in Expi293F cells; normalized to wells without ligand
Experimental: (§1) The vectors were then transfected into Expi293F cells by Expifectamine transfection reagent (Fisher Scientific) at 1 ug per mL at a density of 1 million cells per mL. Approximately 16-20 hours post transfection, cells were washed, plated at 100,000 cells/well in luminometer plates, and then cell permeable luciferase substrate was added and luminescence was monitored on a GloMax96 (Promega) until stabilization of luminescent signal was achieved.

[2] = biological target: T1, Human NRP2a v1 (931aa) with C-terminal split NanoLuc tag, expressed in Expi293F cells (human, UniProt O60462 23-931); experiment: NanoBiT split-luciferase complementation of tagged NRP2 and CCR7 in Expi293F cells; 100 nM CCL21 or CCL19 added; normalized to wells without ligand
T1 construct: Made by mutagenesis from the isoform 2 / isoform 5 vectors; not shown: vector-encoded spacer and split NanoLuc fragment (Promega pBiT vector)

[3] = biological target: T2, Human NRP2a v2 (926aa) in pBiT2.1-C with C-terminal split NanoLuc tag, expressed in Expi293 cells (human, UniProt O60462 23-931); experiment: as above
T2 construct: cDNA Origene RCC220706, isoform 2; also called pBiT2.1-C-NRP2v2 (isoform 2); NRP2 v2; not shown: vector-encoded spacer and small split NanoLuc fragment (pBiT2.1-C)

[4] = biological target: T2, Human NRP2a v2 (926aa) in pBiT2.1-C …; experiment: NanoBiT complementation of NRP2a v2 and CCR7 truncated after aa331 in Expi293 cells; 100 nM CCL21; normalized to wells without ligand
Experimental: The vectors were transfected into Expi293 cells using Expifectamine (Fisher Scientific). Approximately 16-20 hours post transfection, cells were washed, plated at 100,000 cells/well in luminometer plates, and then cell permeable luciferase substrate was added and luminescence was monitored on a GloMax96 (Promega). 100 nM ligand was added, and response to ligand was calculated with respect to a control set with no ligand.

[5] = biological target: B2; experiment: NanoBiT split-luciferase complementation of tagged NRP2 and CCR7 in Expi293F cells; normalized to wells without ligand; remark: listed apart in the source
Experimental: as §1

## B1
[1]
  binding result: no binding (tested: 100 nM CCL21 or CCL19 (from the text))

## B2
[2]
  binding result: binds
[3]
  binding result: binds

## B3
[4]
  binding result: binds

## B4
[5]
  binding result: no binding (tested: 100 nM CCL21 or CCL19 (from the text))
